The test system of series [1] is HeLa Kyoto. The series can be described thus: solubility in G1/S (NP-40 vs SDS abundance) (log2 ratio); higher = more soluble. To be noted: cell cycle stage: G1/S.
The subject of series [2] is HeLa Kyoto. The series can be described thus: thermal stability score vs G1/S (z-score of summed log2 fold changes over temperatures); higher = more thermally stable than in G1/S.
Series [3] relates to HeLa Kyoto. In words: solubility change mitosis vs G1/S (difference of NP-40 vs SDS log2 ratios) (log2 ratio difference); higher = more soluble in mitosis.
Series [4] deals with HeLa Kyoto. In words: melting temperature (median over replicates), in situ; higher = more thermally stable.
Setting [5] is: cell cycle stage: early G1 (4.5 h after nocodazole release).
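Wherever melting temperature (median over replicates), in situ is given: HeLa Kyoto cells synchronized by double thymidine or nocodazole block, proteins quantified by TMT10plex mass spectrometry, three independent biological replicates.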
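Wherever solubility change mitosis vs G1/S (difference of NP-40 vs SDS log2 ratios) is given: synchronized HeLa Kyoto cells (double thymidine block for G1/S, nocodazole release for mitosis), protein amounts in NP-40 versus SDS lysates quantified by mass spectrometry, three biological replicates.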
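Wherever solubility in G1/S (NP-40 vs SDS abundance) is given: HeLa Kyoto cells arrested at G1/S by double thymidine block, proteins quantified by TMT10plex mass spectrometry in mild NP-40 versus SDS extracts, three biological replicates.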
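Wherever thermal stability score vs G1/S (z-score of summed log2 fold changes over temperatures) is given: synchronized HeLa Kyoto cells, proteins quantified by TMT10plex mass spectrometry, three biological replicates, mitosis taken 0.5 h after nocodazole release, G1/S directly after double thymidine block.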

For “MRRSEVLAEESIVCLQKALNHLREIWELIGIPEDQRLQRTEVVKKHIKELLDMMIAEEESLKERLIKSISVCQKELNTLCSELHVEPFQEEGETTILQLEKDLRTQVELMRKQKKERKQELKLLQEQDQELCEILCMPHYDIDSASVPSLEELNQFRQHVTTLRETKASRREEFVSIKRQIILCMEALDHTPDTSFERDVVCEDEDAFCLSLENIATLQKLLRQLEMQKSQNEAVCEGLRTQIRELWDRLQIPEEEREAVATIMSGSKAKVRKALQLEVDRLEELKMQNMKKVIEAIRVELVQYWDQCFYSQEQRQAFAPFCAEDYTESLLQLHDAEIVRLKNYYEVHKELFEGVQKWEETWRLFLEFERKASDPNRFTNRGGNLLKEEKQRAKLQKMLPKLEEELKARIELWEQEHSKAFMVNGQKFMEYVAEQWEMHRLEKERAKQERQLKNKKQTETEMLYGSAPRTPSKRRGLAPNTPGKARKLNTTTMSNATANSSIRPIFGGTVYHSPVSRLPPSGSKPVAASTCSGKKTPRTGRHGANKENLELNGSILSGGYPGSAPLQRNFSINSVASTYSEFAKDPSLSDSSTVGLQRELSKASKSDATSGILNSTNIQS [PRC1]”, in the series on HeLa Kyoto [1], the “solubility in G1/S (log2)” value came to 0.0588. Also, the thermal stability score in the series on HeLa Kyoto [2] (setting [5]) was determined as 5.68; in the series with HeLa Kyoto [2] (cell cycle stage: mitosis), 7.18. Also, in the series on HeLa Kyoto [3], the “solubility change mitosis (log2)” value is 0.431. Further, the melting temperature in the series on HeLa Kyoto [4] (cell cycle stage: G1/S) was found to be 47.1 °C; with HeLa Kyoto [4] (cell cycle stage: mitosis) it was 49 °C.

On to “MAGIIKKQILKHLSRFTKNLSPDKINLSTLKGEGELKNLELDEEVLQNMLDLPTWLAINKVFCNKASIRIPWTKLKTHPICLSLDKVIMEMSTCEEPRSPNGPSPIATASGQSEYGFAEKVVEGISVSVNSIVIRIGAKAFNASFELSQLRIYSVNAHWEHGDLRFTRIQDPQRGEVLTFKEINWQMIRIEADATQSSHLEIMCAPVRLITNQSKIRVTLKRRLKDCNVIATKLVLILDDLLWVLTDSQLKAMVQYAKSLSEAIEKSTEQRKSMAPEPTQSSTVVASAQQVKTTQTSNAPDVNDAIVKLFNDFDVKETSHHLVISHLDLHICDDIHAKEKESNRRITGGAMQLSFTQLTIDYYPYHKAGDSCNHWMYFSDATKTKNGWANELLHEFECNVEMLKQAVKDHNVGSPPKSPTHASPQHTQTEKDYPLKGTCRTPSVLSQQSKAKLMSSSVVVRLADFNIYQVSTAEQCRSSPKSMICCNKKSLYLPQEMSAVYIEFTEYYYPDGKDFPIPSPNLYSQLNALQFTVDERSILWLNQFLLDLKQSLNQFMAVYKLNDNSKSDEHVDVRVDGLMLKFVIPSEVKSECHQDQPRAISIQSSEMIATNTRHCPNCRHSDLEALFQDFKDCDFFSKTYTSFPKSCDNFNLLHPIFQRHAHEQDTKMHEIYKGNITPQLNKNTLKTSAATDVWAVYFSQFWIDYEGMKSGKGRPISFVDSFPLSIWICQPTRYAESQKEPQTCNQVSLNTSQSESSDLAGRLKRKKLLKEYYSTESEPLTNGGQKPSSSDTFFRFSPSSSEADIHLLVHVHKHVSMQINHYQYLLLLFLHESLILLSENLRKDVEAVTGSPASQTSICIGILLRSAELALLLHPVDQANTLKSPVSESVSPVVPDYLPTENGDFLSSKRKQISRDINRIRSVTVNHMSDNRSMSVDLSHIPLKDPLLFKSASDTNLQKGISFMDYLSDKHLGKISEDESSGLVYKSGSGEIGSETSDKKDSFYTDSSSILNYREDSNILSFDSDGNQNILSSTLTSKGNETIESIFKAEDLLPEAASLSENLDISKEETPPVRTLKSQSSLSGKPKERCPPNLAPLCVSYKNMKRSSSQMSLDTISLDSMILEEQLLESDGSDSHMFLEKGNKKNSTTNYRGTAESVNAGANLQNYGETSPDAISTNSEGAQENHDDLMSVVVFKITGVNGEIDIRGEDTEICLQVNQVTPDQLGNISLRHYLCNRPVGSDQKAVIHSKSSPEISLRFESGPGAVIHSLLAEKNGFLQCHIENFSTEFLTSSLMNIQHFLEDETVATVMPMKIQVSNTKINLKDDSPRSSTVSLEPAPVTVHIDHLVVERSDDGSFHIRDSHMLNTGNDLKENVKSDSVLLTSGKYDLKKQRSVTQATQTSPGVPWPSQSANFPEFSFDFTREQLMEENESLKQELAKAKMALAEAHLEKDALLHHIKKMTVE [UHRF1BP1L]”, for which the “solubility in G1/S (log2)” value in the series on HeLa Kyoto [1] is -0.0678. The thermal stability score is -1.27 in the series on HeLa Kyoto [2] (setting [5]) and -1.34 in the series with HeLa Kyoto [2] (cell cycle stage: mitosis). Besides, in the series with HeLa Kyoto [3], the “solubility change mitosis (log2)” value is -0.181. The figures for the melting temperature in the series with HeLa Kyoto [4] (cell cycle stage: G1/S) and in the series with HeLa Kyoto [4] (cell cycle stage: mitosis) were 53.9 °C and 53.8 °C, respectively.

“MRLREPLLSGSAAMPGASLQRACRLLVAVCALHLGVTLVYYLAGRDLSRLPQLVGVSTPLQGGSNSAAAIGQSSGELRTGGARPPPPLGASSQPRPGGDSSPVVDSGPGPASNLTSVPVPHTTALSLPACPEESPLLVGPMLIEFNMPVDLELVAKQNPNVKMGGRYAPRDCVSPHKVAIIIPFRNRQEHLKYWLYYLHPVLQRQQLDYGIYVINQAGDTIFNRAKLLNVGFQEALKDYDYTCFVFSDVDLIPMNDHNAYRCFSQPRHISVAMDKFGFSLPYVQYFGGVSALSKQQFLTINGFPNNYWGWGGEDDDIFNRLVFRGMSISRPNAVVGRCRMIRHSRDKKNEPNPQRFDRIAHTKETMLSDGLNSLTYQVLDVQRYPLYTQITVDIGTPS [B4GALT1]”: in the series on HeLa Kyoto [1], the “solubility in G1/S (log2)” value is -0.0686. The figures for the thermal stability score with HeLa Kyoto [2] (setting [5]) and in the series on HeLa Kyoto [2] (cell cycle stage: mitosis) were -2.25 and -1.74, respectively. The “solubility change mitosis (log2)” value with HeLa Kyoto [3] was 0.0769. Moreover, the melting temperature stood at 53.1 °C in the series with HeLa Kyoto [4] (cell cycle stage: G1/S) and 54 °C with HeLa Kyoto [4] (cell cycle stage: mitosis).

For the sequence “MPGKLKVKIVAGRHLPVMDRASDLTDAFVEVKFGNTTFKTDVYLKSLNPQWNSEWFKFEVDDEDLQDEPLQITVLDHDTYSANDAIGKVYIDIDPLLYSEAATVISGWFPIYDTIHGIRGEINVVVKVDLFNDLNRFRQSSCGVKFFCTTSIPKCYRAVIIHGFVEELVVNEDPEYQWIDRIRTPRASNEARQRLISLMSGELQRKIGLKVLEMRGNAVVGYLQCFDLEGESGLVVRAIGTACTLDKLSSPAAFLPACNSPSKEMKEIPFNEDPNPNTHSSGPSTPLKNQTYSFSPSKSYSRQSSSSDTDLSLTPKTGMGSGSAGKEGGPFKALLRQQTQSALEQREFPFFTLTAFPPGFLVHVGGVVSARSVKLLDRIHNPDEPETRDAWWAEIRQEIKSHAKALGCHAVVGYSESTSICEEVCILSASGTAAVLNPRFLQDGTVEGCLEQRLEENLPTRCGFCHIPYDELNMPFPAHLTYCYNCRKQKVPDVLFTTIDLPTDATVIGKGCLIQARLCRLKKKAQAEANATAISNLLPFMEYEVHTQLMNKLKLKGMNALFGLRIQITVGENMLMGLASATGVYLAALPTPGGIQIAGKTPNDGSYEQHISHMQKKINDTIAKNKELYEINPPEISEEIIGSPIPEPRQRSRLLRSQSESSDEVTELDLSHGKKDAFVLEIDDTDAMEDVHSLLTDVPPPSGFYSCNTEIMPGINNWTSEIQMFTSVRVIRLSSLNLTNQALNKNFNDLCENLLKSLYFKLRSMIPCCLCHVNFTVSLPEDELIQVTVTAVAITFDKNQALQTTKTPVEKSLQRASTDNEELLQFPLELCSDSLPSHPFPPAKAMTVEKASPVGDGNFRNRSAPPCANSTVGVVKMTPLSFIPGAKITKYLGIINMFFIRETTSLREEGGVSGFLHAFIAEVFAMVRAHVAALGGNAVVSYIMKQCVFMENPNKNQAQCLINVSGDAVVFVRESDLEVVSSQQPTTNCQSSCTEGEVTT [C2CD5]”, the “solubility in G1/S (log2)” value in the series on HeLa Kyoto [1] came out at 0.000995. Besides, the thermal stability score is 0.25 in the series on HeLa Kyoto [2] (setting [5]) and -0.02 with HeLa Kyoto [2] (cell cycle stage: mitosis). For the same sequence, the “solubility change mitosis (log2)” value in the series with HeLa Kyoto [3] was -0.067. The melting temperature in the series with HeLa Kyoto [4] (cell cycle stage: G1/S) was 52.2 °C; in the series with HeLa Kyoto [4] (cell cycle stage: mitosis), 52.3 °C.

Regarding “MAMLRVQPEAQAKVDVFREDLCTKTENLLGSYFPKKISELDAFLKEPALNEANLSNLKAPLDIPVPDPVKEKEKEERKKQQEKEDKDEKKKGEDEDKGPPCGPVNCNEKIVVLLQRLKPEIKDVIEQLNLVTTWLQLQIPRIEDGNNFGVAVQEKVFELMTSLHTKLEGFHTQISKYFSERGDAVTKAAKQPHVGDYRQLVHELDEAEYRDIRLMVMEIRNAYAVLYDIILKNFEKLKKPRGETKGMIY [PSME1]”, in the series on HeLa Kyoto [1], the “solubility in G1/S (log2)” value worked out at 0.819. Besides, the figures for the thermal stability score with HeLa Kyoto [2] (setting [5]) and in the series with HeLa Kyoto [2] (cell cycle stage: mitosis) were -2.91 and -1.23, respectively. The “solubility change mitosis (log2)” value in the series with HeLa Kyoto [3] amounted to 0.0323. The melting temperature with HeLa Kyoto [4] (cell cycle stage: G1/S) worked out at 52.4 °C; with HeLa Kyoto [4] (cell cycle stage: mitosis) it was 53.8 °C.

The values are drawn from the supplement of paper PMC5998384.
